Measurements taken from patent US9890400B2, “Method of production of 2,4-dihydroxybutyric acid” (ADISSEO FRANCE S.A.S., priority 2012, dated 2018).

System: CC(C)(COP(=O)(O)OP(=O)(O)OC[C@H]1O[C@@H](n2cnc3c(N)ncnc32)[C@H](O)[C@@H]1OP(=O)(O)O)[C@@H](O)C(=O)NCCC(=O)NCCSC(=O)CCC(=O)O
Test: Malyl-CoA reductase activity, reductive sense (Assay 1)
Format: biochemical, Porphyromonas gingivalis W83
Settings: other: reductive sense, succinyl-CoA added directly, NADPH, pH 7.5, 37° C.
Description: NCBI references of the utilized mcr and sucD protein sequences, and the references for the corresponding natural and synthetic DNA sequences are listed in Table 2.
Expression and purification of Pg-SucD was carried out as described in Example 1 using plasmid pET28-Pgi-sucD.
Malyl-CoA reductase activity was assayed in the reductive and in the oxidative sense of the reaction employing Assay 1 or Assay 2, respectively.
Assay 1 (Reaction Scheme): glyoxylate+acetyl-CoA→malyl-CoA+acetate Malyl-CoA lyase: (L)-Malyl-CoA+NADPH→(L)-Malate semialdehyde+Coenzyme A+NADP Malyl-CoA reductase: Assay 2 (Reaction Scheme): (L)-Malate semialdehyde+Coenzyme A+NADP→(L)-Malyl-CoA+NADPH The reaction mixture according to Assay 1 contained 50 mM MOPS/KOH (pH 7.5), […], and appropriate amounts of purified malyl-CoA reductase or cell extract. Reactions were started by adding glyoxylate. Enzymatic assays were carried out at 37° C. in 96-well flat bottomed microtiter plates in a final volume of 250 μL. The reactions were followed by the characteristic absorption of NADPH at 340 nm (εNADPH=6.22 mM^−1 cm^−1) in a microplate reader (BioRad 680XR).

Work on “Porphyromonas gingivalis succinyl-CoA reductase (Pg-SucD), wild type, SEQ ID No. 10 (Porphyromonas gingivalis W83)” yielded a Km of 1000 µM and a Vmax of 1 µmol/min/mg.
